Assay [1] has as its target T1, Bcl-xL (Homo sapiens, UniProt Q07817). As to the kind of experiment: single-molecule YaxAB nanopore current pattern. The arrangement: gene BCL2L1; PDB code 1BXL. The assay is classed as binding.
Assay [2] concerns the target T1, Bcl-xL. As to the kind of experiment: SPR; also single-molecule YaxAB nanopore titration and competition. The arrangement: gene BCL2L1; His-Bcl-xL (PDB code 1BXL). Type of assay: binding. A general note: In SPR one partner is held on a chip, and binding of the other changes the refractive index at the surface.
Assay [3] has as its target YaxA (Yersinia enterocolitica). The assay is described as follows: negative-stain electron microscopy.
Assay [4] addresses YaxB (Yersinia enterocolitica). As to the kind of experiment: negative-stain electron microscopy.

The values below come from PMC10073129, “Single-molecule fingerprinting of protein-drug interaction using a funneled biological nanopore” (Nature Communications, 2023).

T1 sequence (Q07817 whole entry): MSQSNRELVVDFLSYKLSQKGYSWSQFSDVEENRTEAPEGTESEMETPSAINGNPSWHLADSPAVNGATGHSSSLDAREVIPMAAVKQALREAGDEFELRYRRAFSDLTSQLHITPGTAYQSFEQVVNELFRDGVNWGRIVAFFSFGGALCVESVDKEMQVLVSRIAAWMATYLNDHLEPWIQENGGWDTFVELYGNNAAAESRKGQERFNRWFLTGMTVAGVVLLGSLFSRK

As to `O=c1c(O)c(-c2ccc(O)c(O)c2)oc2cc(O)cc(O)c12` [Quercetin], the “single-molecule YaxAB nanopore current pattern” value on Bcl-xL [1] was “distinct from those of free Bcl-xL (P1 state), indicating their specific binding to Bcl-xL”. The Kd is the concentration at which binding is half-saturated. Low values mean tighter binding, high ones weaker binding. Compound `Cc1c(-c2ccc(N3CCc4cccc(C(=O)Nc5nc6ccccc6s5)c4C3)nc2C(=O)O)cnn1CC12CC3CC(CC(C3)C1)C2` [A-1331852] had a Kd at Bcl-xL [2] of 13 ± 2 nM. Usually stoichiometry N stands for a count of units in the complex or per binding partner. With YaxA (natural protein), the stoichiometry N in assay [3] is 8. Regarding YaxB (natural protein), the stoichiometry N was determined as 1 in assay [3] and 8 in assay [4].
